Substrate: Nc1ccn([C@@H]2O[C@H](COP(=O)(O)OP(=O)(O)OP(=O)(O)O)[C@@H](O)[C@H]2O)c(=O)n1
Experiment: discontinuous CMP-Kdo formation assay (Ray et al.), non-linear Michaelis-Menten fit
Type: biochemical, Aquifex aeolicus
Conditions: co-substrate Kdo held constant (>5 x Km), 10 mM MgCl2 (typical mixture), 100 mM glycine-NaOH pH 9.0, 50°C

B1: AA-LCKS (LPS-specific CMP-Kdo synthetase, KdsB) (Aquifex aeolicus VF5) (protein)
chain: MRRAVIIPARLGSTRLKEKPLKNLLGKPLIRWVVEGLVKTGERVILATDSERVKEVVEDLCEVFLTPSDLPSGSDRVLYVVRDLDVDLIINYQGDEPFVYEEDIKLIFRELEKGERVVTLARKDKEAYERPEDVKVVLDREGYALYFSRSPIPYFRKNDTFYPLKHVGIYGFRKETLMEFGAMPPSKLEQIEGLEQLRLLENGIKIKVLITENYYHGVDTEEDLKIVEEKLKNL
notes: recombinant from plasmid pT7-kdsB in E. coli BL21-CodonPlus(DE3)-RIL; no tag mentioned; monomer 27 kDa, gel filtration 53 kDa, homodimer
- Km: 160 ± 4 µM
- kcat: 9.5 ± 0.5 s⁻¹

— paper PMC3149649, “Evidence for a Two-Metal-Ion Mechanism in the Cytidyltransferase KdsB, an Enzyme Involved in Lipopolysaccharide Biosynthesis” (PLoS ONE, 2011)
